For assay [1], the target named is T1, KISS ME DEADLY 1 (KMD1) (Arabidopsis, UniProt Q9M8L2 1-354).
T1 construct: Full-length protein; also called At1g80440
T1 sequence (looked up): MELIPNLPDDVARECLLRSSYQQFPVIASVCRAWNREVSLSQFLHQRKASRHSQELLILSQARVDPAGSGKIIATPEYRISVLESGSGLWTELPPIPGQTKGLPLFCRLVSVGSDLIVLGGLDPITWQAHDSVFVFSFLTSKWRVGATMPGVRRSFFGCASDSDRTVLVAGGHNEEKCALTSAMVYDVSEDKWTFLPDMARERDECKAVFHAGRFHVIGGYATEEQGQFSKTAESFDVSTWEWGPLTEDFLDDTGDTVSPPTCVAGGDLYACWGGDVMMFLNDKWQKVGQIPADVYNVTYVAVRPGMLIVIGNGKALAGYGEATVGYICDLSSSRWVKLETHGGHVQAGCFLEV
Briefly: BiFC with ARR fragments; the weaker of the two interactions.

Assay [2] deals with T2, KISS ME DEADLY 2 (KMD2) (Arabidopsis, UniProt Q9LMR5 1-359).
T2 construct: Full-length protein; LexA fusion in yeast two-hybrid, YFP^N or YFP^C fusion in BiFC; also called At1g15670
T2 sequence (looked up): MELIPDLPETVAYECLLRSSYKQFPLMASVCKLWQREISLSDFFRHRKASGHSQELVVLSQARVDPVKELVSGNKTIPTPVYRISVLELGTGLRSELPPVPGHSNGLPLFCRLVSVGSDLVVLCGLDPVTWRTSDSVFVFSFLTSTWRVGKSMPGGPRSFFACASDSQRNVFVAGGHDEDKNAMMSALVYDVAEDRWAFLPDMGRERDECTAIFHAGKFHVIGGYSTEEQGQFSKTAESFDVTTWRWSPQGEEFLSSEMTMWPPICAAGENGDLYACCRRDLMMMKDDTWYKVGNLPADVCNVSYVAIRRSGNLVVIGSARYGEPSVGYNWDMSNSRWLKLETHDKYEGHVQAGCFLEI
Briefly: yeast two-hybrid (LexA-KMD bait, X-gal). The source says: (§1) The DUPLEX-A™ system (OriGene Technologies) was used for yeast two-hybrid analysis of interactions. KMD cDNAs were cloned into the pGilda bait vector, which produces an in-frame fusion with the LexA DNA-binding domain. Type-B ARR coding sequences were cloned into the pJG4-5 prey vector, which produces a B42 activation domain. The yeast strain EGY48 (MATa, trp1, his3, ura3, leu2::6 LexAop-LEU2) that contains the lacZ reporter plasmid pSH18-34 was transformed with the appropriate “bait” and “prey” plasmids. Interactions were tested on 5-bromo-4-chloro-3-indolyl-p-D-galactopyranoside (X-gal) medium (Ryu, et al. (2005) Cell 120(3): 395-406).
(§2) The KMD proteins also interacted with ARR20 (type-B ARR subfamily-3), but not with ARR19 (subfamily-2) and ARR21 (subfamily-3). […] All four KMD proteins interacted with both ARR1 and ARR12 in a BiFC assay. Strong fluorescence was detected in the nuclei of cells, consistent with the subcellular localization of the type-B ARRs (Hwang & Sheen J (2001) Nature 413(6854):383-389; Mason, et al. (2004) Plant Physiol. 135(2):927-937).

The target in assay [3] is T3, KISS ME DEADLY 4 (KMD4) (Arabidopsis, UniProt Q9M1Y1 1-418).
T3 construct: Full-length protein; LexA fusion in yeast two-hybrid, YFP^N or YFP^C fusion in BiFC; also called At3g59940
T3 sequence (looked up): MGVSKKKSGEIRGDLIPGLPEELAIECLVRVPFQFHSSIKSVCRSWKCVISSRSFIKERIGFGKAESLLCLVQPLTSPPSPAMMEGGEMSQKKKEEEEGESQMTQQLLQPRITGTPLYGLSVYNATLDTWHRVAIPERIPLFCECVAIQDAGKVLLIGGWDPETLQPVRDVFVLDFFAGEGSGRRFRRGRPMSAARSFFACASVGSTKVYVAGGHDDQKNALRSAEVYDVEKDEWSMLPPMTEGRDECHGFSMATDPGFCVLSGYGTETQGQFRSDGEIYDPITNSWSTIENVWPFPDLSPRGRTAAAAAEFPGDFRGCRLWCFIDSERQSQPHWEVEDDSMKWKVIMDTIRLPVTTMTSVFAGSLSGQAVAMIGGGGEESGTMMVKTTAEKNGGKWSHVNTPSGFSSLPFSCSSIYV
Briefly: yeast two-hybrid (LexA-KMD bait, X-gal).
Source text: as §1, §2

The target in assay [4] is T4, KISS ME DEADLY 3 (KMD3) (Arabidopsis, UniProt O80582 1-409).
T4 construct: Full-length protein; LexA fusion in yeast two-hybrid, YFP^N or YFP^C fusion in BiFC; also called At2g44130
T4 sequence (looked up): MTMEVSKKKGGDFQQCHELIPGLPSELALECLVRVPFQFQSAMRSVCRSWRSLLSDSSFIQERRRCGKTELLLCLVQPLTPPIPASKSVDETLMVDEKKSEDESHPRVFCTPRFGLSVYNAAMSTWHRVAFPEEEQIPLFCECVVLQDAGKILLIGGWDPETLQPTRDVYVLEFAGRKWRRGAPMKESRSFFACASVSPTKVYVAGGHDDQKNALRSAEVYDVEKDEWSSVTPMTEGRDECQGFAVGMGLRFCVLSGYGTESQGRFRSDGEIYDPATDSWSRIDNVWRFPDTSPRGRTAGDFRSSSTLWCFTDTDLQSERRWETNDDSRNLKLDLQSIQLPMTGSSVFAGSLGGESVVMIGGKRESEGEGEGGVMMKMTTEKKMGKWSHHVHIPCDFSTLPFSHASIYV
Briefly: yeast two-hybrid (LexA-KMD bait, X-gal).
Source text: as §1, §2

In assay [5] the target is T1, KISS ME DEADLY 1 (KMD1). The assay can be described thus: yeast two-hybrid (LexA-KMD bait, X-gal).
Source text: as §1, §2

The target in assay [6] is T5, ARR12 (Arabidopsis, UniProt P62598 1-596).
T5 construct: YFP^N or YFP^C fusion of the full-length cDNA in BiFC; also called AtARR12; type-B response regulator AtARR12
T5 sequence (looked up): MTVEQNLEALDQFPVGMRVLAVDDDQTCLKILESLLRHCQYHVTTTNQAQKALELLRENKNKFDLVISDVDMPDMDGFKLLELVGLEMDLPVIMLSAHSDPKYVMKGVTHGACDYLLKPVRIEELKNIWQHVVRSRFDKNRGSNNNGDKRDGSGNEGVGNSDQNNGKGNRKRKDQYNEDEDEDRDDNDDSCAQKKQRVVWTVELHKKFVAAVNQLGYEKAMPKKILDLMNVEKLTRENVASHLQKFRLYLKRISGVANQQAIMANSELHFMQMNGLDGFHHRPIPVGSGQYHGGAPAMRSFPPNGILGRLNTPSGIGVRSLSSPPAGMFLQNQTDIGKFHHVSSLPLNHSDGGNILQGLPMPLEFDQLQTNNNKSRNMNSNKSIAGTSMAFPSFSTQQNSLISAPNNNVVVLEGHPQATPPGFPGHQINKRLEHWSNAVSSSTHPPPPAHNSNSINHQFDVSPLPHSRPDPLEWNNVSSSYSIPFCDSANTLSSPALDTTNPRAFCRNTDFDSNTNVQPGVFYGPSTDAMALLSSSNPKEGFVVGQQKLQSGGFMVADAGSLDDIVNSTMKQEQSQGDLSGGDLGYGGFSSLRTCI
The assay can be described thus: yeast two-hybrid.

The target in assay [7] is T2, KISS ME DEADLY 2 (KMD2). Briefly: BiFC (YFP^N/YFP^C fusions) in Arabidopsis protoplasts. The method, then:
(§3) Arabidopsis protoplasts were transfected as described (Kovtun, et al. (2000) Proc. Natl. Acad. Sci. USA 97(6):2940-2945) and incubated overnight at 22° C. under dim light (5 […]) and examined with an Axioplan2 fluorescent microscope (Carl Zeiss).
(§4) KMD proteins contain a conserved amino-terminal F-box motif. To determine if KMDs function as canonical F-box proteins, their interactions with known components of the Arabidopsis SCF complex were examined.

The target in assay [8] is T3, KISS ME DEADLY 4 (KMD4). Described as above. The method, then: as §3, §4
For assay [9], the target named is T4, KISS ME DEADLY 3 (KMD3). Described as above. The method, then: as §3, §4
Assay [10] addresses T1, KISS ME DEADLY 1 (KMD1). Described as above. How it is done:
as §3, §4

The target of assay [11] is T5, ARR12. Briefly: yeast two-hybrid, positive control.

The results in this text go back to patent publication US20160289698A1 (TRUSTEES OF DARTMOUTH COLLEGE, published 2016).

B1: ARR12 (1-134) (other, Arabidopsis, UniProt P62598 1-134, looked up)
chain: MTVEQNLEALDQFPVGMRVLAVDDDQTCLKILESLLRHCQYHVTTTNQAQKALELLRENKNKFDLVISDVDMPDMDGFKLLELVGLEMDLPVIMLSAHSDPKYVMKGVTHGACDYLLKPVRIEELKNIWQHVVR
notes: range 1-134; Fused to a YFP fragment for BiFC; also called receiver domain of ARR12
Consider B1, for which the binding result in assay [1] is on record as “binds”.

B2: ARR7 (type-A ARR) (other, Arabidopsis, UniProt Q9ZWS7 1-206, looked up)
chain: MAVGEVMRMEIPAGGDLTVTTPELHVLAVDDSIVDRKVIERLLRISSCKVTTVESGTRALQYLGLDGGKGASNLKDLKVNLIVTDYSMPGLSGYDLLKKIKESSAFREVPVVIMSSENILPRIQECLKEGAEEFLLKPVKLADVKRIKQLIMRNEAEECKILSHSNKRKLQEDSDTSSSSHDDTSIKDSSCSKRMKSESENLFSLL
notes: Prey in yeast two-hybrid
On to B2, for which the binding result in assay [2], in assay [3], in assay [4] and in assay [5] was “no binding” each time.

B3: ARR4 (type-A ARR) (other, Arabidopsis, UniProt O82798 1-259, looked up)
chain: MARDGGVSCLRRSEMMSVGGIGGIESAPLDLDEVHVLAVDDSLVDRIVIERLLRITSCKVTAVDSGWRALEFLGLDNEKASAEFDRLKVDLIITDYCMPGMTGYELLKKIKESSNFREVPVVIMSSENVLTRIDRCLEEGAQDFLLKPVKLADVKRLRSHLTKDVKLSNGNKRKLPEDSSSVNSSLPPPSPPLTISPESSPPLTVSTESSDSSPPLSPVEIFSTSPLSSPIDDEDDDVLTSSSEESPIRRQKMRSPGLD
notes: Prey in yeast two-hybrid
For B3, the binding result in [2], in [3], in assay [4] and in assay [5] was “no binding” in each case.

B4: OsKMD2 (other)
chain: MGYNELIPGLPEEVARECLIRVGFDQLPAVRRISRQWKAEVESPAYNRLRKAEGLARPALALVQARRELAEAGPAADKQSSAGGVPGNSYRMVLLDPAEGRWTPLPEVGGASGSLPLFCQVAAVDGGVEGRKRLVVVGGWDPETWAPTDSVLVYDFLTGAWRRGAAMPGPRRSFFACAAVGGKVFVAGGHDEEKNALRSALAYDPDADAWAALPDMAEERDEPRGLCVDGKFLVVGGYPTPAQGRFVGSAEWFDPATSTWSAVQEGFVDDGACPRTCSAAPEAGDRMYMLRDGHLVARHGAISSAPAAWRPVAPVPEDARTAAAVSVIPDGRVVVIGSDCHGGDQTVYTLREEAGKPASWARAPAPPEFSGHVQAACLLEI
notes: Tested in yeast two-hybrid; The fusion partner (LexA bait as for the Arabidopsis KMDs) is not restated for OsKMD2; also called rice KMD2; Os06g39370
Regarding B4, in [6], the binding result was “binds”.

B5: ASK1, an Arabidopsis Skp1 protein of the SCF complex (other, UniProt Q39255 1-160, looked up)
chain: MSAKKIVLKSSDGESFEVEEAVALESQTIAHMVEDDCVDNGVPLPNVTSKILAKVIEYCKRHVEAAASKAEAVEGAATSDDDLKAWDADFMKIDQATLFELILAANYLNIKNLLDLTCQTVADMIKGKTPEEIRTTFNIKNDFTPEEEEEVRRENQWAFE
notes: Full-length cDNA fused to YFP^N or YFP^C for BiFC
With B5, the binding result in assay [7], in assay [8], in assay [9] and in [10] was “binds” in each case.

B6: phosphotransfer protein AtAHP2 (other, Arabidopsis, UniProt Q9ZNV8 1-156, looked up)
chain: MDALIAQLQRQFRDYTISLYQQGFLDDQFTELKKLQDDGSPDFVSEVLSLFFEDCVKLISNMARALDTTGTVDFSQVGASVHQLKGSSSSVGAKRVKTLCVSFKECCEAKNYEGCVRCLQQVDIEYKALKTKLQDMFNLEKQIIQAGGIVPQVDIN
notes: Positive control in the yeast two-hybrid test with AtARR12; construct not described
As for B6, in [11], the binding result is reported as “binds”.
